± gives the uncertainty stated by the source.
Test: protein stability index of a GFP-peptide fusion (yeast GPS) (PSI 1-4); higher = more stable; sorted into four equal gates, so the index is relative within each strain
Procedure, shortened: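 Plasmids isolated from each sorting gate were PCR-amplified and Illumina-sequenced, and barcodes assigned the reads to strains. The gates, four of equal size, were set by GFP/Cherry fluorescence ratio on mid-log cultures in leucine-free medium. These cultures were yeast carrying a pooled library of tiled 17-residue yeast protein peptides fused downstream of GFP on a plasmid that also expresses Cherry. The protein stability index is the sum of every gate's read frequency times its gate number.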

Sequence	protein stability index (doa10∆)	protein stability index (pdr5∆)	protein stability index (san1∆)	protein stability index (ubr1∆)
PQQAQMQQAQFQAQQAQ [SNF2]	2.94 ± 0.062	3.04 ± 0.058	2.99 ± 0.055	3.1 ± 0.041
PVTLAKVIKVLGRTGSR [RPS28A]	1.96 ± 0.083	2.59 ± 0.077	2.09 ± 0.11	2.5 ± 0.13
LTNMMSPMGNAYSMGAQ [PGD1]	2.34 ± 0.062	2.64 ± 0.077	2.49 ± 0.084	2.68 ± 0.044
SADDDVNNGNIPSQRGT [SIR3]	2.97 ± 0.24	3.01 ± 0.1	2.67 ± 0.11	2.86 ± 0.11
SQIRLYAKFKRNTMMIQ [RGR1]	2.44 ± 0.21	2.37 ± 0.11	2.14 ± 0.11	2.61 ± 0.13
NILFSLWKLLSTVKVSD [YLR018C/POM34]	1.76 ± 0.07	1.46 ± 0.058	1.58 ± 0.12	1.55 ± 0.057
SKEDYETLKRDRKQSQA [ARP7]	2.79 ± 0.071	2.9 ± 0.098	2.57 ± 0.093	2.6 ± 0.065
KFGYILCVLDYDNIDIQ [RPB7]	2.02 ± 0.1	2.08 ± 0.09	3.13 ± 0.11	2.04 ± 0.13
VETKLETKVDELRYQSH [DSN1]	2.86 ± 0.088	3.22 ± 0.074	3.31 ± 0.058	3.08 ± 0.073
SASSLVITALKEPPRDR [RPL12A]	2.83 ± 0.062	2.97 ± 0.074	2.66 ± 0.071	2.22 ± 0.052
FQTPFRRRREGKTDYYQ [RPL5]	–	3.31 ± 0.12	2.97 ± 0.12	3.03 ± 0.11
SVTRAGNIISSDKTIVP [SIN4]	3.01 ± 0.12	2.88 ± 0.099	2.97 ± 0.12	3.1 ± 0.068
KLVLNISVGESGDRLTR [RPL11A]	–	–	2.6 ± 0.2	1.08 ± 0.14
SFTLLNQLSQTNKLLFK [NUT1]	2.81 ± 0.09	2.35 ± 0.055	2.71 ± 0.077	2.33 ± 0.057
NFLSKIRNINVQDALLT [SNF2]	1.63 ± 0.047	1.99 ± 0.054	1.77 ± 0.083	1.54 ± 0.032
PSTKVASSAVMNRRKIA [YLR335W/NUP2]	1.41 ± 0.071	1.77 ± 0.062	2.14 ± 0.12	2.38 ± 0.073
LHVVITLLREVVFTRLV [CSN12]	1.26 ± 0.052	1.26 ± 0.047	1.14 ± 0.14	1.37 ± 0.083
ALSLLYHLLNYDPIKRI [SSN3]	2.56 ± 0.073	2.05 ± 0.051	2.39 ± 0.072	2.19 ± 0.039
QVNIRFLLHNSEIIDTN [SRB8]	2.17 ± 0.059	2.71 ± 0.057	2.79 ± 0.055	2.7 ± 0.04
SPVQIAFNRFMAESLVD [SSN8]	1.52 ± 0.043	1.97 ± 0.045	1.63 ± 0.11	1.52 ± 0.044
DTADEAKTLIPSLNNKI [RPB4]	2.95 ± 0.075	3.15 ± 0.078	3.1 ± 0.063	3.1 ± 0.078
LITKANKVSYYGNPTSK [RTT102]	2.21 ± 0.044	1.89 ± 0.042	1.97 ± 0.089	2.2 ± 0.045
LNICRQCFREKANDIGF [RPS29A]	2.8 ± 0.094	2.97 ± 0.12	3.07 ± 0.1	2.86 ± 0.11
DSIIDNIVKLCFVHRYK [IRR1]	2.57 ± 0.11	1.95 ± 0.042	1.99 ± 0.11	2.08 ± 0.035
CANCVKERIVRAFLIEE [RPL34B]	–	3.47 ± 0.26	–	–
KKHLKRLAAPHHWLLDK [RPS4A]	2.78 ± 0.14	2.58 ± 0.078	3.18 ± 0.08	3.01 ± 0.072
KHISASIDNDFSEEKAE [YAR002W/NUP60]	3.04 ± 0.082	3.02 ± 0.065	3.23 ± 0.066	2.97 ± 0.059

From the supplement of paper PMC9732359
